Data: patent US20230357348A1 (AstraZeneca / MedImmune, published 2023)
Starred links: 1 amine or outer side, 2 acyl side, 3 side chain; linkers in the order of their positions; H or OH if unused. Non-standard residues stand in square brackets, D forms with d. Groups on a side chain read outwards from the residue. Primed or numbered codes have the meaning given here. No end group written: not given here. *: point of attachment. C20 diacid = O=C(O)CCCCCCCCCCCCCCCCCCC(=O)*; C18 diacid = O=C(O)CCCCCCCCCCCCCCCCC(=O)*; γGlu = O=C(O)[C@H](CCC(=O)[*:2])N[*:1]; αMeF = C[C@](N)(Cc1ccccc1)C(=O)O; (PEG)2 = polyethylene glycol 2; PEG4 = NCCOCCOCCOCCOCCC(=O)O; PEG4′ = polyethylene glycol; AEEA = NCCOCCOCC(=O)O; Aib = CC(C)(N)C(=O)O

B1: Peptide 271 (peptide)
peptide: H[Aib]HGS[αMeF]TSDVSK[αMeF]LDSRAAK([γGlu-C18 diacid])D[αMeF]VQ[Aib]IANT-NH2
modifications: N-terminus assumed
SMILES: CC[C@H](C)[C@H](NC(=O)C(C)(C)NC(=O)[C@H](CCC(N)=O)NC(=O)[C@@H](NC(=O)[C@](C)(Cc1ccccc1)NC(=O)[C@H](CC(=O)O)NC(=O)[C@H](CCCCNC(=O)CC[C@H](NC(=O)CCCCCCCCCCCCCCCCC(=O)O)C(=O)O)NC(=O)[C@H](C)NC(=O)[C@H](C)NC(=O)[C@H](CCCNC(=N)N)NC(=O)[C@H](CO)NC(=O)[C@H](CC(=O)O)NC(=O)[C@H](CC(C)C)NC(=O)[C@](C)(Cc1ccccc1)NC(=O)[C@H](CCCCN)NC(=O)[C@H](CO)NC(=O)[C@@H](NC(=O)[C@H](CC(=O)O)NC(=O)[C@H](CO)NC(=O)[C@@H](NC(=O)[C@](C)(Cc1ccccc1)NC(=O)[C@H](CO)NC(=O)CNC(=O)[C@H](Cc1c[nH]cn1)NC(=O)C(C)(C)NC(=O)[C@@H](N)Cc1c[nH]cn1)[C@@H](C)O)C(C)C)C(C)C)C(=O)N[C@@H](C)C(=O)N[C@@H](CC(N)=O)C(=O)N[C@H](C(N)=O)[C@@H](C)O
B2: Peptide 268 (peptide)
peptide: H[Aib]HGS[αMeF]TSDVSK[αMeF]LDSRAAK([AEEA-γGlu-C20 diacid])D[αMeF]VQ[Aib]IANT-NH2
modifications: N-terminus assumed
SMILES: CC[C@H](C)[C@H](NC(=O)C(C)(C)NC(=O)[C@H](CCC(N)=O)NC(=O)[C@@H](NC(=O)[C@](C)(Cc1ccccc1)NC(=O)[C@H](CC(=O)O)NC(=O)[C@H](CCCCNC(=O)COCCOCCNC(=O)CC[C@H](NC(=O)CCCCCCCCCCCCCCCCCCC(=O)O)C(=O)O)NC(=O)[C@H](C)NC(=O)[C@H](C)NC(=O)[C@H](CCCNC(=N)N)NC(=O)[C@H](CO)NC(=O)[C@H](CC(=O)O)NC(=O)[C@H](CC(C)C)NC(=O)[C@](C)(Cc1ccccc1)NC(=O)[C@H](CCCCN)NC(=O)[C@H](CO)NC(=O)[C@@H](NC(=O)[C@H](CC(=O)O)NC(=O)[C@H](CO)NC(=O)[C@@H](NC(=O)[C@](C)(Cc1ccccc1)NC(=O)[C@H](CO)NC(=O)CNC(=O)[C@H](Cc1c[nH]cn1)NC(=O)C(C)(C)NC(=O)[C@@H](N)Cc1c[nH]cn1)[C@@H](C)O)C(C)C)C(C)C)C(=O)N[C@@H](C)C(=O)N[C@@H](CC(N)=O)C(=O)N[C@H](C(N)=O)[C@@H](C)O
B3: Peptide 261 (peptide)
peptide: H[Aib]HGS[αMeF]TSDVSK[αMeF]LDSRAAK([PEG4-γGlu-C18 diacid])D[αMeF]VQ[Aib]IANT-NH2
modifications: N-terminus assumed
SMILES: CC[C@H](C)[C@H](NC(=O)C(C)(C)NC(=O)[C@H](CCC(N)=O)NC(=O)[C@@H](NC(=O)[C@](C)(Cc1ccccc1)NC(=O)[C@H](CC(=O)O)NC(=O)[C@H](CCCCNC(=O)CCOCCOCCOCCOCCNC(=O)CC[C@H](NC(=O)CCCCCCCCCCCCCCCCC(=O)O)C(=O)O)NC(=O)[C@H](C)NC(=O)[C@H](C)NC(=O)[C@H](CCCNC(=N)N)NC(=O)[C@H](CO)NC(=O)[C@H](CC(=O)O)NC(=O)[C@H](CC(C)C)NC(=O)[C@](C)(Cc1ccccc1)NC(=O)[C@H](CCCCN)NC(=O)[C@H](CO)NC(=O)[C@@H](NC(=O)[C@H](CC(=O)O)NC(=O)[C@H](CO)NC(=O)[C@@H](NC(=O)[C@](C)(Cc1ccccc1)NC(=O)[C@H](CO)NC(=O)CNC(=O)[C@H](Cc1c[nH]cn1)NC(=O)C(C)(C)NC(=O)[C@@H](N)Cc1c[nH]cn1)[C@@H](C)O)C(C)C)C(C)C)C(=O)N[C@@H](C)C(=O)N[C@@H](CC(N)=O)C(=O)N[C@H](C(N)=O)[C@@H](C)O

Key:
human glucagon receptor = human glucagon receptor (human, UniProt P47871 26-477); experiment: cell-based or functional assay
human glucagon receptor, sequence (P47871 26-477): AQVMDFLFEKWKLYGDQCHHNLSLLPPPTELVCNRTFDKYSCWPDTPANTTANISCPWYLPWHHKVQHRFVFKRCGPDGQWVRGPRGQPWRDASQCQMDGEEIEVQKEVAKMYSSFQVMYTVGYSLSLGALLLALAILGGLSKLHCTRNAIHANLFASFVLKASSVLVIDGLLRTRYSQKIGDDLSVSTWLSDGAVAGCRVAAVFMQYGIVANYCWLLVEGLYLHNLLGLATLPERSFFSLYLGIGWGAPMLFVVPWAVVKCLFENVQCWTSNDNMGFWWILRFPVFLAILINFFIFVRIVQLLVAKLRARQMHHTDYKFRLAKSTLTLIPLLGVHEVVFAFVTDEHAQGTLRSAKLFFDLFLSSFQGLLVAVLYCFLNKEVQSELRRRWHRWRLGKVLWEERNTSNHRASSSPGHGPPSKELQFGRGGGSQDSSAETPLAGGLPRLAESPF

human GLP-1 receptor = human GLP-1 receptor (human, UniProt P43220 24-463); experiment: cell-based or functional assay

Binder | hGluc-R EC50 (pM), cAMP (human glucagon receptor) [pM] | hGLP-1R EC50 (pM), cAMP (human GLP-1 receptor) [pM]
H[Aib]HGS[αMeF]TSDVSK[αMeF]LDSRAAK([AEEA-C20 diacid])D[αMeF]VQ[Aib]IANT-NH2 [Peptide 278] | 83.5 | 78.9
H[Aib]HGS[αMeF]TSDVSK[αMeF]LDSRAAK([γGlu-C20 diacid])D[αMeF]VQ[Aib]IANT-NH2 [Peptide 276] | 91.4 | 143
B1 | 28 | 54.6
H[Aib]HGS[αMeF]TSDVSK[αMeF]LDSRAAK([AEEA-AEEA-C20 diacid])D[αMeF]VQ[Aib]IANT-NH2 [Peptide 277] | 57.3 | 49.5
H[Aib]HGS[αMeF]TSDVSK[αMeF]LDSRAAK([γGlu-γGlu-C18 diacid])D[αMeF]VQ[Aib]IANT-NH2 [Peptide 270] | 31.3 | 24.4
H[Aib]HGS[αMeF]TSDVSK[αMeF]LDSRAAK([AEEA-C18 diacid])D[αMeF]VQ[Aib]IANT-NH2 [Peptide 273] | 23.3 | 22.1
H[Aib]HGS[αMeF]TSDVSK[αMeF]LDSRAAK([PEG4-γGlu-C20 diacid])D[αMeF]VQ[Aib]IANT-NH2 [Peptide 267] | 128 | 65.6
H[Aib]HGS[αMeF]TSDVSK[αMeF]LDSRAAK([AEEA-AEEA-γGlu-C20 diacid])D[αMeF]VQ[Aib]IANT-NH2 [Peptide 280] | 155 | 78.3
H[Aib]HGS[αMeF]TSDVSK[αMeF]LDSRAAK([AEEA-AEEA-γGlu-γGlu-C20 diacid])D[αMeF]VQ[Aib]IANT-NH2 (also: S2: Aib per table, X6: αMePhe, F per table) [Peptide 282] | 1140 | 1230
H[Aib]HGS[αMeF]TSDVSK[αMeF]LDSRAAK([AEEA-γGlu-AEEA-C20 diacid])D[αMeF]VQ[Aib]IANT-NH2 [Peptide 265] | 131 | 71.2
H[Aib]HGS[αMeF]TSDVSK[αMeF]LDSRAAK([AEEA-γGlu-C18 diacid])D[αMeF]VQ[Aib]IANT-NH2 [Peptide 262] | 11.7 | 13
H[Aib]HGS[αMeF]TSDVSK[αMeF]LDSRAAK([AEEA-γGlu-AEEA-γGlu-C18 diacid])D[αMeF]VQ[Aib]IANT-NH2 [Peptide 260] | 76.9 | 33.1
B2 | 29.3 | 39.5
H[Aib]HGS[αMeF]TSDVSK[αMeF]LDSRAAK([AEEA-γGlu-AEEA-γGlu-C20 diacid])D[αMeF]VQ[Aib]IANT-NH2 [Peptide 266] | 293 | 66.5
H[Aib]HGS[αMeF]TSDVSK[αMeF]LDSQAAK([AEEA-AEEA-γGlu-γGlu-C20 diacid])D[αMeF]VQ[Aib]IANT-NH2 [Peptide 256] | 1310 | 346
H[Aib]HGS[αMeF]TSDVSK[αMeF]LDSRAAK([(PEG)2-(PEG)2-γGlu-γGlu-C18 diacid])D[αMeF]VQ[Aib]IANT-NH2 [Peptide 258] | 93.1 | 34
H[Aib]HGS[αMeF]TSDVSK[αMeF]LDSRAAK([AEEA-γGlu-γGlu-C18 diacid])D[αMeF]VQ[Aib]IANT-NH2 [Peptide 274] | 31.3 | 27.1
H[Aib]HGS[αMeF]TSDVSK[αMeF]LDSRAAK([γGlu-γGlu-C20 diacid])D[αMeF]VQ[Aib]IANT-NH2 [Peptide 275] | 175 | 111
H[Aib]HGS[αMeF]TSDVSK[αMeF]LDSRAAK([PEG4-γGlu-γGlu-C18 diacid])D[αMeF]VQ[Aib]IANT-NH2 [Peptide 263] | 64.6 | 25.4
H[Aib]HGS[αMeF]TSDVSK[αMeF]LDSRAAK([(PEG)2-(PEG)2-γGlu-γGlu-C20 diacid])D[αMeF]VQ[Aib]IANT-NH2 [Peptide 264] | 297 | 69.5
H[Aib]HGS[αMeF]TSDVSK[αMeF]LDSRAAK([AEEA-γGlu-AEEA-C18 diacid])D[αMeF]VQ[Aib]IANT-NH2 [Peptide 259] | 34.8 | 19.1
B3 | 29.4 | 16.2
H[Aib]HGS[αMeF]TSDVSK[αMeF]LDSRAAK([PEG4′-γGlu-γGlu-C20 diacid])D[αMeF]VQ[Aib]IANT-NH2 [Peptide 269] | 271 | 52
H[Aib]HGS[αMeF]TSDVSK[αMeF]LDSRAAK([AEEA-AEEA-C18 diacid])D[αMeF]VQ[Aib]IANT-NH2 [Peptide 272] | 14.3 | 15.7
H[Aib]HGS[αMeF]TSDVSK[αMeF]LDSRAAK([AEEA-γGlu-γGlu-C20 diacid])D[αMeF]VQ[Aib]IANT-NH2 [Peptide 279] | 150 | 86.5
